Experiment: soluble fraction after stress (log2 fold change); higher = more stays soluble; pooled small domains, quantitative proteomics
Conditions: stress: pH 4
Outline: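 Aggregation propensity here comes from the fold change in the soluble amount of each small protein domain after acid stress, measured in pooled custom libraries by high-throughput quantitative proteomics. The acid stress was pH 4. On the log2 scale, higher values mean more of the domain stayed soluble.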

Sequence | soluble fraction (log2)
HMRPTYRTRLEVLINNPAISGRDLDFAQSLLSYYERKGRLSAGRVKWVTTLEERYSPENLAASAAK | -0.306
HMKELVEDFASRISNARQSKGWNQSELAKRMAETVNVVKSAESGKSPTDSVIKKLERVLGIILM | 0.0723
HMTSEPFYNPRRPQPYWTSETDRHTTYADAVRALAREFSETPEWVESNMGETNDLQEIRRNLSRVKSG | -0.108
HMDSIDVQQKKLLTDIELGNIEGIKLFLKRHNNTINFLTIKGFHPLVYAVRNNNMEIVNLFLTT | 0.159
HMTERIRLHDDIGSWVEKHGATRSALIPVLQGIQRSYNEISEYAMQEVADRLDIHPVEVYSVVSFYSF | 0.103
HMSESLRDLVLSLIPEDGSTIGNRALITRLREDLPDLTDEDYHEVRDQLIAEGVLAKGRGQGGSVARANG | 0.0415
HMKKPANLISEDRMVEVLYDVIIINTAKGVNKQLLQNNINNPLNYIYRSHGIDSLQFAESNAYYTS | -0.798
HMPGKVSDAGATAKDNRLFLEAVFWRVRTGSPWRDLPPAFGHWNSQFRRFRRWAKAGVFESLFNA | 0.179
HMDREILWTNYVAARKQEFIASSIDTIGAEYLDNRRFWDTQFEREWTIIAERLASGFGLTDDILSIVGSDF | -2.71
HMEGIAEILPASVRQKYGLIGLYDALRGLHFPGNMEEIKAARQRLAFEDTLMFSLTLSMMQYS | -0.0837
HMGRYDWIEQIDDPVLAERLKHLTEDDLELLTRYVFEDATQKELASQYGIGQQSVSKRLKKLKSFLTK | -0.683
HMDEEGDALDREYEDQIRLGDEAFDAEDWTSAQRAYTAALELRPDERYPKNRLRRLASLQEDV | 0.161
HMSLETRRYQLPRTDAQTASGLLRSLSGLPGVREVNLSGEGVAYLKVDSKGFDEQNVIKLLAGE | -0.0727
HMEALPSNLRRLRLEAQLTLDRLGALSGVSRAMISKIERGASVPTATMLGKLAAALQVSLSQLL | -0.263
HMFAATGVVNAPSGLVLRETASKGGNPLATVPDKAQVEIVEEDGEWYKVKVNEQTGYLFAEFVNKTE | -0.13
HMDRNEFVSTLRAALTGAVSPAIVEDNVRYYQNYISQEIASGKSEKEVLDGLGDPRLIARTIIDT | 0.14
HMLERPLKLKSHYVSAINEKVAVQFQAGEERKSIMGTLTEVNQDTIVIDDRGSVTEIPFKSIIRAKTVF | -0.163
HMYSQIGYGSSGSDVRKLQEILNGKGYNLSVDGQFGAKTKSAVRDYQSKNGLSVDGIVGVNTWGKLT | 0.22
HMLQQNRAVEAEQLARKGLSYAQSNIQQAALWRLVAEATEQQGKVDAALNAKNKAMQLEMAG | 0.353
HMHGEAVVVPNVKGLPMRQAENEIYKQSLKAVAIDSSYVKGMPPGAILEQNPAGGSKVKKGRTVYLTINMD | 0.0278
HMTVDTSELEEMIDDLIKEHPNEWERYSSGEKKVQGFFVGQVMKATSGQADGKAINQILSKRVKS | 0.000391
HMSNIVNYEVYVYQNDAWDLLARYPSEKRAEAIEYAKSTEFSLNRPTKVIRETYDLDTQKFQEALIYLSE | -0.304
HMEPDDLTVIKGIGPVAAKDLNEQGIITFAQLAKLSDKDVAKIDEHMPFSADQIKDWREQAKELAK | 0.0725
HMTKINAPMPGNILDVKVNVGDHVEANQLVLMLEAMKMENEIFTPVAGTVVGVHVKKGDSVNSDDLLISI | -1.09
HMEELLVAVKADGSIWADGRPITPDGLASFIDSKPADAVLNLAVDKKAPFAAFVKVVDVAKEKKSGRFVIR | -0.141

Sequence | soluble fraction (log2)
HMDNPYEVFIPNSYIGQRLDQTLASLFPQFSRSRLQNWLASGNLLVNGKIVKPKTKILGGEQINILDPYN | 0.17
HMITSELALVKLVVKGANRVEALRVAETFRARALDVTLSSFVFELTGKPSKLDAFIGLMRSLGDTEILKR | -1.02
HMAPRQDIAYYTVKPGDTVLAIAEKFGLQPETLMWSNSIIEQNPDRLSIGDELRILPVDGVLHVVK | -0.666
HMKILKQLEAIIEKEGLNESAKQFYLREISELDKEKQQEIINLVDKMEQAGFKNNLASAFSEVTEDIPQF | -0.518
HMSPLDSHLGRRIALRRQQLNTSAADLEKAISMVPGSVARFEAGRQSLNATQLFTLSRALDVPVLYFFEG | -0.418
HMEREQPFAVTEAYRGMRLDRFLQAMLPRMSRAAIQDAIDNRVRLGSGRAAKASLRPAIGDTVFFGQRI | -0.17
HMRQSIHTALQLLTPREEEVLNLLVSGKSNKQVAEHFSLSSKTIERHRSSVMRKLDASSFAQLVRIAALR | -0.404
HMTGKLGKIILQPKQTVYGITKKYQISESELRRLNPQLDSHLKIGDEVILPAENIKKFGGNQPVAVS | ≥ 0.43
HMFNLFPHLSVLRNITLAPQKVKGLNRSESNEIAMSLLERVGIPEQSDKFPSQLSGGQQQRVAIARALAM | 0.22
HMTTAGTAIVQTGNSGKLNLREQAYANAGILGRYSNGTAVTVLQKGAAWSYVEVKGQKGYMMSKFLKFTS | -0.341
HMYRPQQEFTMRDLFQNNLNGSESASVRRDALGAELGIGYGNAKRFLERLNHYGVSREEFTAALEKLESE | -0.205
HMGEKPTEITLSNAISVQELAEKLYVSETDIIRTLFLDGIIVNINQVLDLETAVKVGDQLGVTITIVE | -1.8
HMAHKRVDGTIVTPLTADTIVLRTGTHGEQPFEIRDTTRHKLESLQKGDMVILLIDTDNKVIDVAIPP | -0.263
HMKTKTFSPGEIVKIQTRDKSWQGTILESHDPEIILLKLTTGYNIGIRENEIINAKVIEKSKKDVKDAE | 0.176
HMSERVVVPDLTGKDLVAAQSELREISLAGREEGPGDKVRRQFPVAGVKVPKDTVVILYTED | 0.117
HMSSDEEQLATLTRLLQKQEQIIQTLGPRNPMVSLQQYANTITKVIEMAGFKDTSQFINSQIP | -0.0429
HMIEYILDYLANRGVYAASQGEQQQMEDGIARYLQENGLEDGNTGAYYQKYVSNHLQQISASDLKAYFLN | -1.49
HMSRGTRIDPNWQPSPEDRALARAEGFSDPEIDREALQFRDYWLGASGSNAVKLDWSATWRNWVRRAATNF | -0.204
HMYVSGVPAITSIERVSTPGRRVYAGYTTVPKVIGGMGVSILTTSRGVMTDAEARRQKVGGELLAKV | -0.29
HMQPPKIISTVEPYREVVREYLKQGVEMTAIWQRLRENYQYTGSYSSVRRFVAQLEPRQPEA | -0.135
HMQPIEIQDRITKAFERSAALEAKNINVEVDGHTVKLTGTVHSLTEKEEARKAAFFAPGVTKVENHLIVDY | -0.0498
HMTETIPVSERLFRYLFEEKGKRVQKIQQTSHARVRMERSPYSVVVSGTKDAVEAAMESLKATEKELLEA | 0.321
HMRKATEVPFTAFKDSIENSHGKLSKAGLARHLADEYGMSQRNMERRINNLIDNKTIKYGNEGGLVWIG | 0.22
HMRREIRLTVTEEIVLMKFLLTQIPYKNRDNFKTLLNDRQIRVNGSVVTWYNHPLKPGQEVTIGWFKM | -0.628
HMISFHEYLTQLLDEKGLTKAQVITDSNIQKNYGYQIFDGSKTPSRDKVIAIALAMQLTLDEANRLLHLSN | -0.618

Sequence | soluble fraction (log2)
HMKSFIWKQYTVQITKKNVKNTNVRIKRDNPHVILMSIPYSATYKAGLLALETPHIRHWLDNYERKLKQ | 0.0309
HMPPAIKTLMFMIQNKSLLKSPKQLAVVQQQLKKIKGVRDVLILLEEGKVMLKVNKHETIHEASIIRLLGG | 0.00198
HMYFFNTFTQRLFDNPELTQEEAIRQMYPGISGVQTAEKLQENFMADVYIQAAIRQEIVVQLIR | 0.22
HMSTILERLIMLQEQSGMNQKQLQKELGLSNSAFSDWKKGKGRPSVEALVRFSEFFGVSMDWLAFG | -0.845
HMDKQEKIHKKKIIILEALKRLLQNDVYSRITVQAVADEAGFSKGGLLHYFPTKEEMYIEFMEY | 0.092
HMPIRMLQVQKTNTGYLNVRDTPSVSGALIGKVFPGDMLSSTEERDGWFLVAVPQGGTGWVSGDYVKTTS | 0.0778
HMLGWEDVIQFEEVKGYGQHIWRDGNHLYYVTEEGGIAPQRVVYELPNELFALLESGERTQLEILSKLQ | -2.35
HMENKVLVITEEEKGKRLDVYLAAALEVSRSYAQQLIQGEDVVVNDKQVKANYRLSEGDVVQVQLD | -0.218
HMDAYMIGHNIAKWRKEKGMTQDQLAEHLSVSGQAVSKWENGASLPDIAILPKLAEIFDVTMDQLFSR | 0.166
HMVEYFDDENLDAFIGRESDSYTEKEIEQFREILYTMNQKEVADWNRSLTIRGINIPNDLKDEMIMMI | -2.71
HMGTIRAPMPGTILKINVVDGDSVTKGDVLLILESMKMENSITSPKTGSVTSVYVSEGDPVQHGETLIDL | -1.22
HMQEKLELIIPVSSIGKRADVAIQDLLSSYSRAKIQEWIKSGFILLESKKISPKDIFMGGERVFIDIQQDE | -1.38
HMEKYIVEAEEQGKRLDMYISSKDEELTRTSAQRLIEQGDILVNNKKVKVAYKVSEGDIIAVEKQ | 0.00594
HMGSKKITIYVSGEVKNPGIVTLNSDQRLASAVEKLGGVTENADMNNINLAMKLEDEMHYIIPKKGEK | 0.149
HMDIFGREAEVEQILQEVRFGDDPHYRLSIGILPVTGHAGAGKTALVRFIFHHEVARAEFTVRMWVHV | -0.998
HMNKVAQFYRELVSTLSERLRNGERDIDALVEQARVRISQSGELTQSEIENVIRAVRRDLEEFALSYEE | -1.73
HMHSEISGGSKDPFRFMPHLGVEDIHAETDRLSGSGVEFIREPDQESWGGWVATFKDPDGNILQLLQL | -0.0468
HMREEQELFRKLLEVNGIGPKVAAGMLAGGRPEDVVSAIRREDVAWLTKLPGIGRKTAQRIVLDLKDKLD | 0.165
HMPSPTPEQVLKAFTDAAMQKNTVEELKQAFAKAWKMLEGTPEQHKAQDVYNIRRDELEGAA | -0.0378
HMSSIHQDAKQQLHEYIRTYIQPLMRAGKQVTVWDIIGHVTIRKPKLVQKIGTQQLINMVQDLLE | -0.302
HMENLSFNINSEEEGQRIDKYLSVMIEGKSRSFVQGLIEEKKVKANSKVIKSNYKLKKGDFIEVEVPEPV | 0.36
HMAEMLENQLKHAKSKQEANEYIAAAIGGVSDDDPDKEYLVAAYNEISKEFHHSSAYHRLPDT | ≥ 0.43
HMRMLTKRRQDLLLELLEERGSITVSEVKDMLDASESTIRRDITALDEEGKLVKVFGGAVAAR | -0.465
HMQMLQDPFLNALRKEHVPVSIYLVNGIKLQGQVESFDQYVVLLRNTSVTQMVYKHAISTIVPARAVSL | -0.412
HMTVDIADALRVLGLSDAPDWSDVRAAHRRAIVRTHPDAGGSAGDAARVNQAFDLLRKISGNGERPIPG | 0.0966

Source: the domain aggregation screens of Martell et al. (2025)
